The test system of this data set is Escherichia coli TOP10. The experiment in a line: shrunken log2 fold change of peptide-encoding DNA abundance (4.5 h post-induction vs induction); higher = less antimicrobial activity (less host growth inhibition). The note with it: time post-induction: 4.5 h; library: site-saturation at positions 5, 18, 19, 20.
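Note: peptides expressed intracellularly from a pBAD plasmid library in pooled LB shake-flask culture, induced with 0.3% L-arabinose, DNA abundance read by NGS, three biological replicates, DESeq2 with apeglm shrinkage.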

Turning to RRIRFRPPRLPRPRPRPRSCPRP, the “shrunken log2 fold change” value is 0.155.
In the case of RRIRARPPRLPRPRPRPKLWPRP it was 1; in that of RRIRCRPPRLPRPRPRPSIMPRP, -0.684.
On to RRIRKRPPRLPRPRPRPRDPPRP, for which the “shrunken log2 fold change” value came to 1.06.
For RRIRNRPPRLPRPRPRPHRDPRP, the “shrunken log2 fold change” value is -0.0417.
In the case of RRIRYRPPRLPRPRPRPARMPRP it was -0.0508; in that of RRIRHRPPRLPRPRPRPKIDPRP, -0.0926.
In the case of RRIRIRPPRLPRPRPRPPNIPRP it was -0.0703; in that of RRIRIRPPRLPRPRPRPQRIPRP, -0.536.
The figure for RRIRCRPPRLPRPRPRPNGPPRP is -0.00954.
Consider RRIRPRPPRLPRPRPRPMQAPRP, for which the “shrunken log2 fold change” value is -0.0135.
As for RRIRTRPPRLPRPRPRPQAYPRP, the “shrunken log2 fold change” value is -0.629.
For RRIRRRPPRLPRPRPRPHVQPRP, the “shrunken log2 fold change” value is -0.143.
The figure for RRIRLRPPRLPRPRPRPNPTPRP is -0.149.
As for RRIRTRPPRLPRPRPRPMALPRP, the “shrunken log2 fold change” value is -0.0542.
In the case of RRIRHRPPRLPRPRPRPKITPRP it was -0.913; in that of RRIRCRPPRLPRPRPRPMIWPRP, -0.0837.
As for RRIRRRPPRLPRPRPRPEERPRP, the “shrunken log2 fold change” value was determined as 0.34.
For RRIRFRPPRLPRPRPRPHELPRP, the “shrunken log2 fold change” value turned out to be 0.0835.
The figure for RRIRCRPPRLPRPRPRPSDEPRP is -0.126; for RRIRKRPPRLPRPRPRPGHFPRP it is 0.0417; for RRIRPRPPRLPRPRPRPYFRPRP it is -0.463.
As for RRIRVRPPRLPRPRPRPLPVPRP, the “shrunken log2 fold change” value was determined as 0.0196.
Consider RRIRWRPPRLPRPRPRPCHWPRP, for which the “shrunken log2 fold change” value was -0.116.
With RRIRDRPPRLPRPRPRPSQVPRP, the “shrunken log2 fold change” value is -0.426.
In the case of RRIRQRPPRLPRPRPRPLRDPRP it was 0.082.
In the case of RRIRSRPPRLPRPRPRPPLQPRP it was 0.504.
In the case of RRIRDRPPRLPRPRPRPVRDPRP, the “shrunken log2 fold change” value is 0.203.
Turning to RRIRERPPRLPRPRPRPPIAPRP, the “shrunken log2 fold change” value is 0.13.
The figure for RRIRRRPPRLPRPRPRPPSRPRP is 0.446.
On to RRIRSRPPRLPRPRPRPKHMPRP, for which the “shrunken log2 fold change” value amounted to 0.00683.
In the case of RRIRLRPPRLPRPRPRPRCSPRP it was 0.0191.
In the case of RRIRMRPPRLPRPRPRPKREPRP it was 0.055; in that of RRIRQRPPRLPRPRPRPNSPPRP, -0.0178.
Turning to RRIRGRPPRLPRPRPRPMFYPRP, the “shrunken log2 fold change” value was found to be 1.07.
In the case of RRIRDRPPRLPRPRPRPDTMPRP it was 0.373; in that of RRIRVRPPRLPRPRPRPRQHPRP, 0.174; in that of RRIRKRPPRLPRPRPRPKWAPRP, 0.0446.
Take RRIRHRPPRLPRPRPRPLNCPRP: the “shrunken log2 fold change” value was -0.134.
Consider RRIRHRPPRLPRPRPRPGDCPRP, for which the “shrunken log2 fold change” value is -0.0887.
The figure for RRIRNRPPRLPRPRPRPAPWPRP is 0.266; for RRIRCRPPRLPRPRPRPGVTPRP it is -0.175.
The figure for RRIRLRPPRLPRPRPRPPPSPRP is 1.28; for RRIRMRPPRLPRPRPRPWDQPRP it is 0.0532.
As to RRIRIRPPRLPRPRPRPVSMPRP, the “shrunken log2 fold change” value was 0.0888.
Regarding RRIRCRPPRLPRPRPRPKYEPRP, the “shrunken log2 fold change” value is -0.403.
In the case of RRIRYRPPRLPRPRPRPRFMPRP it was -0.323; in that of RRIRKRPPRLPRPRPRPCTFPRP, 0.00111; in that of RRIRHRPPRLPRPRPRPCQTPRP, -0.0148.
The figure for RRIRDRPPRLPRPRPRPTSRPRP is 0.208.
In the case of RRIRMRPPRLPRPRPRPTDAPRP it was 0.741; in that of RRIRWRPPRLPRPRPRPPKRPRP, 0.388; in that of RRIRRRPPRLPRPRPRPSATPRP, 0.756.
Consider RRIRNRPPRLPRPRPRPHWNPRP, for which the “shrunken log2 fold change” value was -1.01.
The figure for RRIRWRPPRLPRPRPRPTIFPRP is 0.0443.
As for RRIRFRPPRLPRPRPRPYRAPRP, the “shrunken log2 fold change” value was -0.353.
The figure for RRIRSRPPRLPRPRPRPRDVPRP is -0.0918; for RRIRVRPPRLPRPRPRPPTMPRP it is 0.0704; for RRIRGRPPRLPRPRPRPQVRPRP it is 0.713.
The figure for RRIRMRPPRLPRPRPRPPIYPRP is -0.0765; for RRIRDRPPRLPRPRPRPMEMPRP it is 0.0165; for RRIRYRPPRLPRPRPRPGCNPRP it is -0.172.
On to RRIRIRPPRLPRPRPRPYNAPRP, for which the “shrunken log2 fold change” value was -0.734.
For RRIRQRPPRLPRPRPRPPISPRP, the “shrunken log2 fold change” value is -0.187.
The figure for RRIRIRPPRLPRPRPRPANTPRP is 0.027.
In the case of RRIRMRPPRLPRPRPRPKVNPRP it was 0.31; in that of RRIRYRPPRLPRPRPRPEEMPRP, -0.0902.
The figure for RRIRDRPPRLPRPRPRPCYHPRP is -0.019; for RRIRPRPPRLPRPRPRPHALPRP it is -0.376; for RRIRKRPPRLPRPRPRPPFRPRP it is 0.566.
For RRIRFRPPRLPRPRPRPQIPPRP, the “shrunken log2 fold change” value was -0.475.
The figure for RRIRRRPPRLPRPRPRPTWHPRP is 0.429; for RRIRFRPPRLPRPRPRPYAMPRP it is -0.686; for RRIRRRPPRLPRPRPRPKELPRP it is 0.166.
With RRIRSRPPRLPRPRPRPDKEPRP, the “shrunken log2 fold change” value is 0.0247.
The figure for RRIRDRPPRLPRPRPRPYCEPRP is -0.42; for RRIRYRPPRLPRPRPRPGSAPRP it is -0.24; for RRIRARPPRLPRPRPRPGIQPRP it is -0.041.
The figure for RRIRGRPPRLPRPRPRPINDPRP is -0.211; for RRIRTRPPRLPRPRPRPIAHPRP it is 0.00363; for RRIRDRPPRLPRPRPRPCYLPRP it is -0.345.
For the sequence RRIRFRPPRLPRPRPRPHCFPRP, the “shrunken log2 fold change” value is -0.0267.
On to RRIRDRPPRLPRPRPRPTCFPRP, for which the “shrunken log2 fold change” value was found to be 0.0704.
The figure for RRIRTRPPRLPRPRPRPEADPRP is 0.0868.
With RRIRMRPPRLPRPRPRPDNCPRP, the “shrunken log2 fold change” value is 0.00157.
For the sequence RRIRWRPPRLPRPRPRPTNEPRP, the “shrunken log2 fold change” value was 0.225.
Consider RRIRKRPPRLPRPRPRPFSSPRP, for which the “shrunken log2 fold change” value is -0.219.
The figure for RRIRLRPPRLPRPRPRPMWKPRP is -0.0297; for RRIRFRPPRLPRPRPRPSYRPRP it is -0.783; for RRIRSRPPRLPRPRPRPIRYPRP it is 0.31.
In the case of RRIRFRPPRLPRPRPRPHWAPRP it was -0.0371; in that of RRIRGRPPRLPRPRPRPPGPPRP, 0.821; in that of RRIRYRPPRLPRPRPRPFEVPRP, -0.0115.
In the case of RRIRVRPPRLPRPRPRPGQTPRP it was -0.00176.
For the sequence RRIRTRPPRLPRPRPRPVFFPRP, the “shrunken log2 fold change” value worked out at 0.0831.
With RRIRGRPPRLPRPRPRPICHPRP, the “shrunken log2 fold change” value was 0.378.
For RRIRIRPPRLPRPRPRPTPPPRP, the “shrunken log2 fold change” value was determined as 0.464.
The figure for RRIRGRPPRLPRPRPRPKRSPRP is 0.301.
The figure for RRIRARPPRLPRPRPRPIDAPRP is 0.0272; for RRIRKRPPRLPRPRPRPLVEPRP it is 0.734; for RRIRWRPPRLPRPRPRPTMNPRP it is -0.225.
As for RRIRERPPRLPRPRPRPHWIPRP, the “shrunken log2 fold change” value was -0.117.
The figure for RRIRQRPPRLPRPRPRPESVPRP is 0.00473; for RRIRIRPPRLPRPRPRPCETPRP it is 0.105.
In the case of RRIRPRPPRLPRPRPRPTFMPRP it was 0.0861.
As to RRIRIRPPRLPRPRPRPKHKPRP, the “shrunken log2 fold change” value was -0.508.
In the case of RRIRRRPPRLPRPRPRPDGRPRP it was 0.0193.
On to RRIRNRPPRLPRPRPRPYCYPRP, for which the “shrunken log2 fold change” value was -1.44.
As to RRIRIRPPRLPRPRPRPCIDPRP, the “shrunken log2 fold change” value was -0.0398.
For the sequence RRIRHRPPRLPRPRPRPVICPRP, the “shrunken log2 fold change” value is -0.0717.
On to RRIRQRPPRLPRPRPRPYITPRP, for which the “shrunken log2 fold change” value is -0.0324.
The figure for RRIRNRPPRLPRPRPRPSEHPRP is -0.159; for RRIRKRPPRLPRPRPRPWNTPRP it is -0.332; for RRIRPRPPRLPRPRPRPREAPRP it is 0.44.
In the case of RRIRIRPPRLPRPRPRPVNTPRP it was -1.06.
Regarding RRIRLRPPRLPRPRPRPRPQPRP, the “shrunken log2 fold change” value came out at 0.398.
In the case of RRIRFRPPRLPRPRPRPPFAPRP it was 0.423; in that of RRIRFRPPRLPRPRPRPAVFPRP, 0.259.
The figure for RRIRERPPRLPRPRPRPPKGPRP is -0.16; for RRIRTRPPRLPRPRPRPRPHPRP it is 0.296; for RRIRGRPPRLPRPRPRPFANPRP it is 0.0848.
In the case of RRIRQRPPRLPRPRPRPRRYPRP it was 0.112; in that of RRIRKRPPRLPRPRPRPIYRPRP, -0.0881; in that of RRIRWRPPRLPRPRPRPHDVPRP, 0.132.
Take RRIRSRPPRLPRPRPRPYYWPRP: the “shrunken log2 fold change” value is -0.00332.

(Values after the supplement of paper PMC9112550, “Optimization of the antimicrobial peptide Bac7 by deep mutational scanning” (BMC Biology, 2022).)
